Reference: the MegaScale stability set (Tsuboyama et al. 2023)

B1: r11_951_TrROS_Hall (parent)
chain: KKKYVIKVYFEDTGKEVEIEAESKEEALEAAKRLAEELGLKIKKVEIYP

Variants of: B1
Experiment: folding stability dG (cDNA display proteolysis); higher = more stable
Conditions: PBS, room temperature

Variant	folding stability dG [kcal/mol]
KKKYVIKVYFEDTGKEVEYEAESKEEALEAAKRLAEELGLKIKKVEIYP [I19Y]	4.49
KKKYVIKVYFEDTGKEVEPEAESKEEALEAAKRLAEELGLKIKKVEIYP [I19P]	0.94
KKKYVIKVYFEDTGKEVEWEAESKEEALEAAKRLAEELGLKIKKVEIYP [I19W]	4.51
KKKYVIKVYFEDTGKEVETEAESKEEALEAAKRLAEELGLKIKKVEIYP [I19T]	3.98
KKKYVIKVYFEDTGKEVESEAESKEEALEAAKRLAEELGLKIKKVEIYP [I19S]	3.56
KKKYVIKVYFEDTGKEVEREAESKEEALEAAKRLAEELGLKIKKVEIYP [I19R]	3.57
KKKYVIKVYFEDTGKEVEVEAESKEEALEAAKRLAEELGLKIKKVEIYP [I19V]	4.19
KKKYVIKVYFEDTGKEVEQEAESKEEALEAAKRLAEELGLKIKKVEIYP [I19Q]	3.59
KKKYVIKVYFEDTGKEVEIEADSKEEALEAAKRLAEELGLKIKKVEIYP [E22D]	4.26
KKKYVIKVYFEDTGKEVEIEAFSKEEALEAAKRLAEELGLKIKKVEIYP [E22F]	4.46
KKKYVIKVYFEDTGKEVEIEACSKEEALEAAKRLAEELGLKIKKVEIYP [E22C]	4.52
KKKYVIKVYFEDTGKEVEIEAHSKEEALEAAKRLAEELGLKIKKVEIYP [E22H]	4.49
KKKYVIKVYFEDTGKEVEIEAISKEEALEAAKRLAEELGLKIKKVEIYP [E22I]	4.11
KKKYVIKVYFEDTGKEVEIEAGSKEEALEAAKRLAEELGLKIKKVEIYP [E22G]	4.32
KKKYVIKVYFEDTGKEVEIEAASKEEALEAAKRLAEELGLKIKKVEIYP [E22A]	4.36
KKKYVIKVYFEDTGKEVEIENESKEEALEAAKRLAEELGLKIKKVEIYP [A21N]	3.84
KKKYVIKVYFEDTGKEVEIELESKEEALEAAKRLAEELGLKIKKVEIYP [A21L]	4.24
KKKYVIKVYFEDTGKEVEIERESKEEALEAAKRLAEELGLKIKKVEIYP [A21R]	4.32
KKKYVIKVYFEDTGKEVEIETESKEEALEAAKRLAEELGLKIKKVEIYP [A21T]	4.37
KKKYVIKVYFEDTGKEVEIEVESKEEALEAAKRLAEELGLKIKKVEIYP [A21V]	4.45
KKKYVIKVYFEDTGKEVEIEEESKEEALEAAKRLAEELGLKIKKVEIYP [A21E]	4.25
KKKYVIKVYFEDTGKEVEIEIESKEEALEAAKRLAEELGLKIKKVEIYP [A21I]	4.44
KKKYVIKVYFEDTGKEVEIEYESKEEALEAAKRLAEELGLKIKKVEIYP [A21Y]	4.18
KKKYVIKVYFEDTGKEVEIEDESKEEALEAAKRLAEELGLKIKKVEIYP [A21D]	3.72
KKKYVIKVYFEDTGKEVEIEFESKEEALEAAKRLAEELGLKIKKVEIYP [A21F]	4.23
KKKYVIKVYFEDTGKEVEIEMESKEEALEAAKRLAEELGLKIKKVEIYP [A21M]	4.26
KKKYVIKVYFEDTGKEVEIEQESKEEALEAAKRLAEELGLKIKKVEIYP [A21Q]	3.77

Variant	folding stability dG [kcal/mol]
KKKYVIKVYFEDTGKEVEIECESKEEALEAAKRLAEELGLKIKKVEIYP [A21C]	4.07
KKKYVIKVYFEDTGKEVEIESESKEEALEAAKRLAEELGLKIKKVEIYP [A21S]	4.7
KKKYVIKVYFEDTGKEVEIEKESKEEALEAAKRLAEELGLKIKKVEIYP [A21K]	4.29
KKKYVIKVYFEDTGKEVEIEGESKEEALEAAKRLAEELGLKIKKVEIYP [A21G]	4.28
KKKYVIKVYFEDTGKEVEIEPESKEEALEAAKRLAEELGLKIKKVEIYP [A21P]	2.03
KKKYVIKVYFEDTGKEVEIEWESKEEALEAAKRLAEELGLKIKKVEIYP [A21W]	3.72
KKKYVIKVYFEDTGKEVEIEHESKEEALEAAKRLAEELGLKIKKVEIYP [A21H]	4.3
KKKYVIKVYFEDTGKEVEIRAESKEEALEAAKRLAEELGLKIKKVEIYP [E20R]	4.29
KKKYVIKVYFEDTGKEVEIKAESKEEALEAAKRLAEELGLKIKKVEIYP [E20K]	4.03
KKKYVIKVYFEDTGKEVEIHAESKEEALEAAKRLAEELGLKIKKVEIYP [E20H]	4.42
KKKYVIKVYFEDTGKEVEIDAESKEEALEAAKRLAEELGLKIKKVEIYP [E20D]	4.27
KKKYVIKVYFEDTGKEVEIAAESKEEALEAAKRLAEELGLKIKKVEIYP [E20A]	4.33
KKKYVIKVYFEDTGKEVEIPAESKEEALEAAKRLAEELGLKIKKVEIYP [E20P]	4.29
KKKYVIKVYFEDTGKEVEILAESKEEALEAAKRLAEELGLKIKKVEIYP [E20L]	4.36
KKKYVIKVYFEDTGKEVEIWAESKEEALEAAKRLAEELGLKIKKVEIYP [E20W]	4.49
KKKYVIKVYFEDTGKEVEITAESKEEALEAAKRLAEELGLKIKKVEIYP [E20T]	4.4
KKKYVIKVYFEDTGKEVEISAESKEEALEAAKRLAEELGLKIKKVEIYP [E20S]	4.22
KKKYVIKVYFEDTGKEVEIIAESKEEALEAAKRLAEELGLKIKKVEIYP [E20I]	4.38
KKKYVIKVYFEDTGKEVEIMAESKEEALEAAKRLAEELGLKIKKVEIYP [E20M]	4.42
KKKYVIKVYFEDTGKEVEIVAESKEEALEAAKRLAEELGLKIKKVEIYP [E20V]	4.42
KKKYVIKVYFEDTGKEVEICAESKEEALEAAKRLAEELGLKIKKVEIYP [E20C]	4.28
KKKYVIKVYFEDTGKEVEIGAESKEEALEAAKRLAEELGLKIKKVEIYP [E20G]	4.27
KKKYVIKVYFEDTGKEVEIFAESKEEALEAAKRLAEELGLKIKKVEIYP [E20F]	4.25
KKKYVIKVYFEDTGKEVEIQAESKEEALEAAKRLAEELGLKIKKVEIYP [E20Q]	4.43
KKKYVIKVYFEDTGKEVEINAESKEEALEAAKRLAEELGLKIKKVEIYP [E20N]	4.22
KKKYVIKVYFEDTGKEVEIYAESKEEALEAAKRLAEELGLKIKKVEIYP [E20Y]	4.56
